Reference: patent US20260337282 (published 2026)

T1: mouse CCR8 (mouse)
T1 chain: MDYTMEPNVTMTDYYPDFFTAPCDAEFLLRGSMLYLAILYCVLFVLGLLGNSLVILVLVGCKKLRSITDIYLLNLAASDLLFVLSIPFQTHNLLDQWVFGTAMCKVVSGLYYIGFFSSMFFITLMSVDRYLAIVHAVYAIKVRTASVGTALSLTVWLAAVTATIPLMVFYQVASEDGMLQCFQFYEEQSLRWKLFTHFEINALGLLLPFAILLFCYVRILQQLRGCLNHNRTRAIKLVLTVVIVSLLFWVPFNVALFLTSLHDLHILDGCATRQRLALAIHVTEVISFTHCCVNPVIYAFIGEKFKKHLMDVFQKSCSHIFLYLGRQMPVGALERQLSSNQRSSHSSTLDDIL

T2: cynomolgus CCR8 (cynomolgus)
T2 chain: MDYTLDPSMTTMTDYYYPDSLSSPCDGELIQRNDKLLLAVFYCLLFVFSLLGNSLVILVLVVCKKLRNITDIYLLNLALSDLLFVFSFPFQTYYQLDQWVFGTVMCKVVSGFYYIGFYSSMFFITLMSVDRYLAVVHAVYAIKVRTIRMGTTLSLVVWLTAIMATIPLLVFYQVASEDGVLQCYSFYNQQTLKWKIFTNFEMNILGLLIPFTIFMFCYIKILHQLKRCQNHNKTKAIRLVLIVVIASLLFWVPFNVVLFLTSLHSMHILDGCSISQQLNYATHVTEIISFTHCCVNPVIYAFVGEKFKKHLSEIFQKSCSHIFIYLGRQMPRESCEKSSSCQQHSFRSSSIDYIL


How the values were obtained:
Assay in all cases: FACS
mouse CCR8 [1] = target: T1, mouse CCR8
human CCR8 = human CCR8 (human)
Sequence of human CCR8 (human) (chain, as listed by the source): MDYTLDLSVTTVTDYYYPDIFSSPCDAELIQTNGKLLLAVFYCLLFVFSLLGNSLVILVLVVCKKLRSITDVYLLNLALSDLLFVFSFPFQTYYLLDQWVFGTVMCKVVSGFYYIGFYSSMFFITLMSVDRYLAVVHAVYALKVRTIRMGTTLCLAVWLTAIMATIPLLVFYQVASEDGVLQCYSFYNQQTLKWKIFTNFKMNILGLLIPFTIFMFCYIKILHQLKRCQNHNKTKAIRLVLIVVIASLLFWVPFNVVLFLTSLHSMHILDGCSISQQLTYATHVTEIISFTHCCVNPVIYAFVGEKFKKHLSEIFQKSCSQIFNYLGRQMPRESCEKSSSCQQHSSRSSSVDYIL

mouse CCR8 [2] = target: T1, mouse CCR8
cynomolgus CCR8 = target: T2, cynomolgus CCR8

binding result (mouse CCR8 [1])	EC50 (human CCR8)	EC50 (mouse CCR8 [2])	binding result (cynomolgus CCR8)	Binder
no binding	0.058 µg/mL	> 10 µg/mL	–	10A11 analog (antibody, V domains shown) VH: EVQLVESGGALVKPGGSLRLSCAASGFTFSTYALYWVRQAPGKGLEWVGRIRSKSNNYATYYADSVKDRFTISRDDSKNTLYLQMNSLKTEDTAVYYCTRARFYYSDYGYAMDYWGQGTLVTVSS VL: DIVMTQSPDSLAVSLGERATINCRSSKSLLHSNRNTYLYWYQQKPGQPPKLLIYRMSQLASGVPDRFSGSGSGTDFTLTISSLQAEDVAVYYCMQHLEYPLTFGQGTKLEIKR
no binding	0.039 µg/mL	> 10 µg/mL	no binding	7B16 analog (antibody, V domains shown) VH: EVQLVESGGGLVQPGGSLKLSCAASGFTFNTYAMNWVRQASGKGLEWVGRIRSKSNNYATYYADSVKDRFTISRDDSKNTAYLQMNSLKTEDTAVYYCVRGLLRYRFFDVWGQGTTVTVSS VL: DIVMTQSPLSLPVTPGEPASISCRSSKSLLHSNGNTYLYWFLQKPGQSPQLLIYRMSNLASGVPDRFSGSGSGTDFTLKISRVEAEDVGVYYCMQHLEYPFTFGGGTKVEIK
